Molecular target: the molecule itself
Assay: cryo-EM structure

B1: SARS-CoV S glycoprotein S2 subunit (from trypsin cleavage of the S ectodomain) (domain or fragment)
chain: STSQKSIVAYTMSLGADSSIAYSNNTIAIPTNFSISITTEVMPVSMAKTSVDCNMYICGDSTECANLLLQYGSFCTQLNRALSGIAAEQDRNTREVFAQVKQMYKTPTLKYFGGFNFSQILPDPLKPTKRSFIEDLLFNKVTLADAGFMKQYGECLGDINARDLICAQKFNGLTVLPPLLTDDMIAAYTAALVSGTATAGWTFGAGAALQIPFAMQMAYRFNGIGVTQNVLYENQKQIANQFNKAISQIQESLTTTSTALGKLQDVVNQNAQALNTLVKQLSSNFGAISSVLNDILSRLDKVEAEVQIDRLITGRLQSLQTYVTQQLIRAAEIRASANLAATKMSECVLGQSKRVDFCGKGYHLMSFPQAAPHGVVFLHVTYVPSQERNFTTAPAICHEGKAYFPREGVFVFNGTSWFITQRNFFSPQIITTDNTFVSGNCDVVIGIINNTVYDPLQPELDSFKEELDKYFKNHTSPDVDLGDISGINASVVNIQKEIDRLNEVAKNLNESLIDLQELGKYEQYIKWP
stoichiometry N: 3

Reference: article PMC6107290 (PLoS Pathogens, 2018)
